According to a protein production outcome set (Wang et al. 2014):

Experiment: label from the status in PepcDB records

| Sequence | protein production |
| --- | --- |
| MNARLGVSLKILSALCATLMLACVKGLNGAIPTGEVIFFRSFVALFPLLLWLKVQGNILQRIKTKNIFGHLIRGFSGTGGMYFNYLALVYISLADATAISYAAPLFTVLMAAILLKENVHFSRWLAVIVGFCGILIMLSAKLTISNGLFSSGFALDGTALGATFALLAAACAATSNIQIRFLNGVESPGAIVFYFSLMTTLIGLFTLVFGWKMPHGWQWLLLIGCGLFGGIAQILVTLSLRYADASLLAPFDYTTLVWSMVIGYLFLDNLPEYATLMGASVVALAGIFTIWCNRRQRKGHIVRSS | failed |
| MNAVLVAVAIMLLLSLLRVQVIVAIIVGALTGGLIGGLGISETINTFTTGLGNSAPIALSYAMLGGFAISLSKTGLPDAMIQTALKWIGNEQDTKKQVYSKILILFIILTMACFSQNVIPVHIAFIPILIPALLKVLNELRVDRRLVTCIITFGLITPYMWIPAGFGKIYHDVLQTNAAQSGLTFDVTLIPKAMTIPAIGMIIGLCVAVFITYRKPRTYETEQIHTTENEIVPYTKRSITFGLLSIIATLTVQLTTESMIFGALAGIIVLSVSGSLPLKEADAILTSGMRMMSFIGFVMIAAAGFGAVLRKTGHVESLVQTSAHIIGNNKPLAAFLMLVIGLLVTMGIGSSFSTIPILTTIFVPLCIQLGFSPMATIAIIGTAGALGDAGSPASDSTLGPTSGLNADGQHHHIWDTCVPTFLHYNIPLLIFGFIAAITL | failed |
| MNDAAVWVPVPAMFYWGWLVPLIFGTIFGWRYHRDKVRLGNGIWFSLFFYSFLTMLAITILGSNIHWLIIISGALFVLLILLIGLIFTLQAFLLLWNAWIMWRHESHTLANMLTLYLGLGILVLPFLGNLLSSHVPQPVSYFLTLFPNLVIFYLGFLFYNYLTMLTIYQFNWPRLRQDYIIVLGDGWAETQSKTTFQNMQFSKQLIAQGPAKNPRTIFVTNKYGRLQI | failed |
| MNDDLSWMLDSALEIPGALHAVLISADGLLMARTQDFDKDDADRVAAAMSGVQSLSRTLAFFCEDPSQTWRQTLVEFDGGWVFLISAGEGAYLGVSASPEVDMADITFRMQQLVAQLGKRLTTPPRENLGARS | failed |
| MNDDVEFRYADFLFKNNNYAEAIEVFNKLEAKKYNSPYIYNRRAVCYYELAKYDLAQKDIETYFSKVNATKAKSADFEYYGKILMKKGQDSLAIQQYQAAVDRDTTRLDMYGQIGSYFYNKGNFPLAIQYMSKQIRPTTTDPKVFYELGQAYYYNKEYVKADSSFVKVLELKPNIYIGYLWRARANAAQDPDTKQGLAKPYYEKLIEVCAPGGAKYKDELIEANEYIAYYYTINRDKVKADAAWKNILALDPTNKKAIDGLKMKLEHHHHHH | not failed |
| MNDLTKGKPLKLIFWFTIPLLIGNIFQQFYSLSDTLIVGQTLGVKALAAVGSTGSVQFLIIGFAQGLTAGLSILTAQHFGARDFKAVRRSFAISIVVSLIVGIILTILSLIFVDHILLLMQTPTDIIADARTFLQIMLGGMLAPIAFNLLSNIIRALGDSRTPLWFLIISALINIGLELLFILVFKWGIAGASWATILAQTIATLMCVVYIIVKVPILHIGRRHFKLVWSEVKAHLNVGLPMAFQMSIIAIGTIVLQAALNSLGTNSVAATTAAQKIDQVATQPLMSFGVTMATFAAQNYGAHQYERIITGVKQTMWLSGSFSVAAGLIEIIWGKQLVGFFVGHQDMAVLNLSQTYFNVIGSTYILLSMLFIMRNTLQGLGRSAIPTLAGAAELFMRVFAALILVRIFDYAGACSSEPLAWLGSCAVLLPAYIKSVHDLRQQARMTNTVAEGAEPILNDSEKL | failed |
| MNDLVESLIYEVNNMQQNFENVKSQQQDHDFYQTVKPYTEHIDSILNEIKLHREFIIEVPYMNSRKFELLIANIEQLSVECHFKRTSRKLFIEKLKSVQYDLQNILDGVTKEGTDG | not failed |
| MNDQVRLHYETWVYPRYPLAASVRRSDTYALSLDALYARFNGTLPPAAARRILLAGCGSFSPYPTAVANPGVPVTALDLSAANLRRARLHAWMHGRFGISFEQGDLMDPAAAQGEYGFIDSFGVIHHLADPLAGLRALERRLAPGGILRLMVYSRGARRVVESARRALRFAGVRDVARLKDLLRRSPPGSRLSHAVEASGEGGGDAGLADALLHPRARIFSIDELMAMVGETGLVPLRFAHSRALAEPGAEVVRLRGLEQAGEPVPNFVLYLGREPRGGCGLAPDALLMLNPALRHDVGVLRLAPLAVPPRLGLKNPVLGFADRRFLRRFSTPLPVSALTPTDRERVGPFLDALFVIPFR | failed |
| MNDRVIQNSRQGERVLAALSYFSIFFAPIILPIFIWIFADRPTSNHAAKSLAYHIITYIGPILLILSIGFGGVLINNSSTITSVIMITVAIILFVITVWYTIKNIYRGVRVLISEHAYFHP | failed |
| MNEDLAVIVYTSGTTGNPKGVMITYENIKTNMEGVRAVDLVTETDVILAMLPYHHIMPLCFTLILPMYMGVPIVLLTEISSASLLKALQENRVTVILGVPRVWEMLDKAIMTKINQSSLAKFMFKMASKINSMSIRKMLFSKVHKQFGGNIRLMVSGGAKIDKNILEDFRTMGFCAIQGYGMTETAPIITFNVPGRERSDSAGLEHHHHHH | failed |
| MNEEQRKSTSIDILAERDKKTKDYSKYFEHVYQPPSLKEARKRGKEEVNYNDDFQIDEKYRNMGQGKTFLIKTYGCQMNAHDTEVMAGILGALGYTPTEDINHADVILINTCAIRENAENKVFSEIGNLKHLKKEKPETVIGVCGCMSQEESVVNKILKSYQNVDMIFGTHNIHRLPEILEEAYLSKAMVVEVWSKEGDVIENLPKVREGNIKAWVNIMYGCDKFCTYCIVPFTRGKERSRRPEDIIDEVRDLARQGYKEITLLGQNVNAYGKDIDGLAYGLGDLLEDISKIDIPRVRFTTSHPWDFTDRMIEVIANGGNIVPHVHLPVQSGNNAVLKIMGRKYTRESYLDLVNRIKTHIPNVALTTDIIVGYPNETDEQFEETLTLYDEVEFEHAYTYIYSQRDGTPAAKMNDNVPLDVKKDRLQQLNKKVACYSERAMQQYEGQTVQVLCEGVSKKDDTVLSGYTSKNKLVNFKAPKSMIGKIVNVYIDEAKQFSLNGTFISVNDKTVVTQLEHHHHHH | not failed |
| MNEILHWKRNFFLLALGRFVSILGSSVQAVAIPLFVLDLTHSGSAVALMTVAYMVPRILFTPIAGIVGDRGDRKFLMVSMDFLRGFLICFLALLAFRNSITLPVLYVSQIAMAIMDNLFDIPTGAMFPDIVPQDFLMRANSIMGMVRIFPQILGPALGGVIYGFYGIAIVFLVNGVSFVLSAISEIFIVYSRKVEKKPAKFSQILEDLKEGFLFIWNHELIRTILIFALFLNLLISPLFMVVYPYTIREVMKFSAQEFGFLETSFTLGALLGNFLIASYLSKKNMWKAMKISIFLFELPIVFLGFLVMPDFSLNRLVLFSLFFITFLIMGFLNPIINVPLDTAFQKMTPSHIRARAFSFLILVANGVTPLGSVLYGYLVDRVPVHFLYYVVGALSFLVAVLLLVALRGKELPT | failed |
| MNEKIEQAIREMGFKNFTEVQSKTIPLMLQGKNVVVRAKTGSGKTAAYAIPILELGMKSLVVTPTRELTRQVASHIRDIGRYMDTKVAEVYGGMPYKAQINRVRNADIVVATPGRLLDLWSKGVIDLSSFEIVIIDEADLMFEMGFIDDIKIILAQTSNRKITGLFSATIPEEIRKVVKDFITNYEEIEACIGLANVEHKFVHVKDDWRSKVQALRENKDKGVIVFVRTRNRVAKLVRLFDNAIELRGDLPQSVRNRNIDAFREGEYDMLITTDVASRGLDIPLVEKVINFDAPQDLRTYIHRIGRTGRMGRKGEAITFILNEYWLEKEVKKVSQKA | not failed |
| MNEKIVREQRGGEDSPSSVSAKSATAAASASTASMTFASAALESHKTTTITTASSSPRTSGASASASSSSRSASAPASSSSQQEKQPMLNATDMRELREIKQLLWGDNVREDVFKRWSQGFEFSKVEPSALVQKQGGPCAVIAPVQAYLLKIIIMDLPGIKLSEISLDKSQNLLIQALCDILKNCRAPRYRIVHLLRRRGNATEAGSTKKRSPAGEEESALAGQAAGSSEEVEEAAEATPASVSKLSQALQLEHDMHQELSPDEFHERLHTLHFKNIAAVARYYMENYDQLAHTYGVLLFMYSVFLTKGLELVAADISDTSEPLIHSTYGYGGQSLINLMLTGRAVAHVWDNEQDVGGLKLRGICEQSDIGFITLMEEMRYCTVGSFFKNPRYPVWVMGSDTHLTVLFSNEKRLVSPETPSETGRRIFKSYDPEGNNFISTTMLREVLIALNLVSEPAYVALMQKRLDPENLGIILLNAFMDEFFPLESRSTPDTFELMHYNGIPGSNENNKVRYYCGTAILLEGDLKSVCTSNPMVTCLQTKWPNIEINWHDGHMPSLN | failed |
| MNEKTINEQYAYIRTLLEEKRLKEALMQLESLLWQCPDWDLRTRLEQLQTSYKYMLEYMRQGANDPERWNVYRKLIADTWEIADRSRLLMLDNASSRYYHEVRRTPRPESLSAYTLKKLLHMLESFNDDLAVSGLLSDEKMDEVLKRHEETLKYMFLQTWTNSAWTPEEEEDAQSMLTSELLPVNDLCLFISAVTLSLMECFDLRKIMWLLDAYRHPDVNAGQRALVGVIFIFHIYKNRLSLYNDLVKRVDLMDEISPFKEDVARIYHQMLLCQETEKIDKKMREEIIPEMLKNVSSMRNMRFGFEENEDENDDKNPDWADAFEQSGLGDKLREMNELQLEGADVYMSTFAALKSYPFFREVQNWFYPFSKQQSDVIKQLKQEGNEKNTLLDLILQSGFFSNSDKYSLFFTIRQLPKAQQDMMLSQLGEQQVAELTEKSSAETMKKFNERPGTVSNQYLHDLYRFFKLSVRRHEFRDIFKEKLDLHHIPALSNVLYSEDILFPIADFYLKKERWNEAIEVYEEMETIGALQERGAEYYQKLGYALQKSKKYAEAIGAYLKADTLKPDNIWNNRHLAICYRLNRNYQAALSYYKKVEEATPEDTNVIFHIGSCLAELGQYEEAANYFFKLDFIESNCIKAWRGIGWCSFISRKYEQAMKYYEKIIEQKPLAIDYMNAGHVAWTMGDIQKAAALYGKSITANGNRERFLEMFRKDEEALLKQGIQEEDIPLMLDLL | failed |
| MNEKTLHLDKKSAVVGGLNLSQTKIFGTPLPLFLFLLLTVLAAHFTDTLPSGLVGGFAFMFVIGAIFGEVGKRLPIFNKYIGGAPVMIFLVAAWFVHMGWLSDREIKTVTEVMDKSKFLDLFIAVLITGSILAVNRKLLIRSLAGYIPTILAAVAGAAVFGIAIGLVFGITPDRIMMLYVLPIMGGGNGAGAIPLSEIYESVTGGSKEQYYSVAIAILTIANIVAIVAAAVINIIGEKIPSLTGNGELVRSSKLDVSEEAKNLTVTHREIAIGLMLAACVYTFSYALSKEILPGFGSIQIHTFAYMVVIIAILNAAGLCSDEIKEGAKRLSNFFSKQMLWLLMVGVGIAYTDLAEIINALTFANVIIATVIVLGAIIGAALGGWAMGFYPVEASITAGLCMANRGGSGDLEVLAASNRMSLLSYAQISSRLGGGIVLVIASVVFGMFV | failed |
